According to US20180037651A1 (Janssen / Centocor, published 2018):

T1: cyno GPRC5D (cyno, UniProt Q9NZD1 1-343 (human entry))
T1 construct: on transfected HEK293F or Daudi cells; also called cynomolgus monkey GPRC5D
T1 chain: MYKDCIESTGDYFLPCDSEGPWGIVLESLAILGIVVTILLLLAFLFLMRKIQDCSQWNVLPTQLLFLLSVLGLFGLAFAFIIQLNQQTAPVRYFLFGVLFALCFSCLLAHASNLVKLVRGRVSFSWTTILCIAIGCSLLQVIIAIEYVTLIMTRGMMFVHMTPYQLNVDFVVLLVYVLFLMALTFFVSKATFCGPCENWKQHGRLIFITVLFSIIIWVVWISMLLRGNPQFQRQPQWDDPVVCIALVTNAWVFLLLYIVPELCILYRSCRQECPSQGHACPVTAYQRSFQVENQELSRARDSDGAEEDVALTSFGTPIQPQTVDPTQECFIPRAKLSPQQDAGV


Legend:
cyno GPRC5D [1] = target: T1, cyno GPRC5D; assay: FACS, cyno GPRC5D cells, 1 ug/ml
Experimental: Whole cell phage panning was completed using the human GPRC5D cells as antigen, as described above. […] These mAbs were initially evaluated for binding to cyno GPRC5D using FACS. […] Briefly, FACS screening was performed by normalizing protein concentration to 1 ug/ml and 100 ul of protein was mixed with 200,000 cells per well. The mAb was allowed to incubate with cells for 1 hour at 4° C. The cells were then washed three times with PBS and 0.2% FBS. […] The cells and secondary antibody were incubated for 1 hour at 4° C. The cells were then washed three times with PBS and 0.2% FBS. The cells were washed again using PBS and 0.2% FBS and then analyzed on FACSarry.

human GPRC5D [2] = target: T2, human GPRC5D (human, UniProt Q9NZD1 1-345); assay: FACS, human GPRC5D HEK293F cells
T2 construct: on transfected HEK293/RBL cells or endogenous on myeloma cells (H929, MM1R, OPM2, LP1, JIM3, patient plasma cells); also called G protein-coupled receptor class C group 5 member D; hGPRC5D
T2 sequence (Q9NZD1 whole entry): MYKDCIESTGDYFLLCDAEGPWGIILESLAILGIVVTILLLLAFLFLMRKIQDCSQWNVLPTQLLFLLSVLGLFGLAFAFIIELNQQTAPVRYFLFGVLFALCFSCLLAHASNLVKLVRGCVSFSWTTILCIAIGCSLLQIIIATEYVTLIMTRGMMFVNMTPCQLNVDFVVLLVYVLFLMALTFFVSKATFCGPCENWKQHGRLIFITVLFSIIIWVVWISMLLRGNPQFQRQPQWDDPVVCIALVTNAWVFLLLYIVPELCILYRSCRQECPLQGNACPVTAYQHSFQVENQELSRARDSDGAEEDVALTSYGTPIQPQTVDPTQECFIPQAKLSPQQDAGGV

cyno GPRC5D [3] = target: T1, cyno GPRC5D; assay: FACS, cyno GPRC5D HEK293F cells
human GPRC5D [4] = target: T2, human GPRC5D; assay: FACS, human GPRC5D cells

Binder	MFI (cyno GPRC5D [1]) [MFI]	MFI (human GPRC5D [2]) [MFI]	MFI (cyno GPRC5D [3]) [MFI]	MFI (human GPRC5D [4]) [mfi]
GC5B80 (antibody, V domains shown, GC5H40+PH9L3) VH: not shown VL: EIVLTQSPATLSLSPGERATLSCRASQSVSSYLAWYQQKPGQAPRLLIYDASNRATGIPARFSGSGSGTDFTLTISSLEPEDFAVYYCQQRSNWPLTFGQGTKVEIK	428			
GC5B243 (antibody, IgG1, V domains shown, human IgG4PAA) VH: EVQLLESGGGLVQPGGSLRLSCAASGFTFSDYGMHWVRQAPGKGLEWVSAIKYSGGSTYYADSVKGRFTISRDNSKNTLYLQMNSLRAEDTAVYYCAKRAESGPGLDYWGQGTLVTVSS VL: not shown	117000	20500	67800	
GC5B320 (printed with GC5H92) (antibody, V domains shown) VH: not shown VL: EIVLTQSPATLSLSPGERATLSCRASQSVSSYLAWYQQKPGQAPRLLIYDASNRATGIPARFSGSGSGTDFTLTISSLEPEDFAVYYCQQRSNWPLTFGQGTKVEIK	297			
GC5B284 (antibody, V domains shown, GC5H14+PH9L3) VH: not shown VL: EIVLTQSPATLSLSPGERATLSCRASQSVSSYLAWYQQKPGQAPRLLIYDASNRATGIPARFSGSGSGTDFTLTISSLEPEDFAVYYCQQRSNWPLTFGQGTKVEIK	249			
GC5B320 (antibody, IgG1, V domains shown, GC5H58+PH9L3 (L6); human IgG4PAA) VH: not shown VL: EIVLTQSPATLSLSPGERATLSCRASQSVSSYLAWYQQKPGQAPRLLIYDASNRATGIPARFSGSGSGTDFTLTISSLEPEDFAVYYCQQRSNWPLTFGQGTKVEIK	49600	22900	63300	
GC5B332 (printed with GC5H89) (antibody, V domains shown) VH: EVQLVQSGAEVKKPGESLKISCKGSGYSFTSYWIGWVRQMPGKGLEWMGIIYPGDSDTRYSPSFQGQVTISADKSISTAYLQWSSLKASDTAMYYCARIGFYGRSFRIFDYWGQGTLVTVSS VL: EIVLTQSPATLSLSPGERATLSCRASQSVSSYLAWYQQKPGQAPRLLIYDASNRATGIPARFSGSGSGTDFTLTISSLEPEDFAVYYCQQRSNWPLTFGQGTKVEIK	299			
GC5B163 (antibody, V domains shown, GC5H36+PH9L2) VH: EVQLVQSGAEVKKPGESLKISCKGSGYSFTSYWIGWVRQMPGKGLEWMGIIYPGDSDTRYSPSFQGQVTISADKSISTAYLQWSSLKASDTAMYYCARVYSFGGRHKALFDYWGQGTLVTVSS VL: not shown	22000	840	7600	
GC5B251 (antibody, IgG1, V domains shown, human IgG4PAA) VH: QVQLVQSGAEVKKPGSSVKVSCKASGGTFSSYGISWVRQAPGQGLEWMGGIIPIFGNINYAQKFQGRVTITADESTSTAYMELSSLRSEDTAVYYCARVSRRFKRFAYYFDYWGQGTLVTVSS VL: not shown	213000	11400	74500	
GC5B164 (antibody, IgG1, V domains shown, GC5H36+PH9L3 (L6); human IgG4PAA) VH: EVQLVQSGAEVKKPGESLKISCKGSGYSFTSYWIGWVRQMPGKGLEWMGIIYPGDSDTRYSPSFQGQVTISADKSISTAYLQWSSLKASDTAMYYCARVYSFGGRHKALFDYWGQGTLVTVSS VL: EIVLTQSPATLSLSPGERATLSCRASQSVSSYLAWYQQKPGQAPRLLIYDASNRATGIPARFSGSGSGTDFTLTISSLEPEDFAVYYCQQRSNWPLTFGQGTKVEIK	122000	12700	78700	
GC5B495 (antibody, V domains shown, GC5B164 PTM variant; also called GC5H254) VH: EVQLVQSGAEVKKPGESLKISCKGSGYSFTSYAIGWVRQMPGKGLEWMGIIYPGYSDTRYSPSFQGQVTISADKSISTAYLQWSSLKASDTAMYYCARVYSFGGRHKALFDYWGQGTLVTVSS VL: EIVLTQSPATLSLSPGERATLSCRASQSVSSYLAWYQQKPGQAPRLLIYDASNRATGIPARFSGSGSGTDFTLTISSLEPEDFAVYYCQQRSNWPLTFGQGTKVEIK				1000 to 10000
GC5B496 (antibody, V domains shown, GC5B164 PTM variant; also called GC5H253) VH: EVQLVQSGAEVKKPGESLKISCKGSGYSFTSYYIGWVRQMPGKGLEWMGIIYPGDSDTRYSPSFQGQVTISADKSISTAYLQWSSLKASDTAMYYCARVYSFGGRHKALFDYWGQGTLVTVSS VL: EIVLTQSPATLSLSPGERATLSCRASQSVSSYLAWYQQKPGQAPRLLIYDASNRATGIPARFSGSGSGTDFTLTISSLEPEDFAVYYCQQRSNWPLTFGQGTKVEIK				> 10000
GC5B497 (antibody, V domains shown, GC5B164 PTM variant; also called GC5H252) VH: EVQLVQSGAEVKKPGESLKISCKGSGYSFTSYVIGWVRQMPGKGLEWMGIIYPGDSDTRYSPSFQGQVTISADKSISTAYLQWSSLKASDTAMYYCARVYSFGGRHKALFDYWGQGTLVTVSS VL: EIVLTQSPATLSLSPGERATLSCRASQSVSSYLAWYQQKPGQAPRLLIYDASNRATGIPARFSGSGSGTDFTLTISSLEPEDFAVYYCQQRSNWPLTFGQGTKVEIK				> 10000
GC5B498 (antibody, V domains shown, GC5B164 PTM variant; also called GC5H251) VH: EVQLVQSGAEVKKPGESLKISCKGSGYSFTSYFIGWVRQMPGKGLEWMGIIYPGDSDTRYSPSFQGQVTISADKSISTAYLQWSSLKASDTAMYYCARVYSFGGRHKALFDYWGQGTLVTVSS VL: EIVLTQSPATLSLSPGERATLSCRASQSVSSYLAWYQQKPGQAPRLLIYDASNRATGIPARFSGSGSGTDFTLTISSLEPEDFAVYYCQQRSNWPLTFGQGTKVEIK				> 10000
GC5B501 (antibody, V domains shown, GC5B164 PTM variant; also called GC5H248) VH: EVQLVQSGAEVKKPGESLKISCKGSGYSFTSYWIGWVRQMPGKGLEWMGIIYPGASDTRYSPSFQGQVTISADKSISTAYLQWSSLKASDTAMYYCARVYSFGGRHKALFDYWGQGTLVTVSS VL: EIVLTQSPATLSLSPGERATLSCRASQSVSSYLAWYQQKPGQAPRLLIYDASNRATGIPARFSGSGSGTDFTLTISSLEPEDFAVYYCQQRSNWPLTFGQGTKVEIK				> 10000
GC5B502 (antibody, V domains shown, GC5B164 PTM variant; also called GC5H247) VH: EVQLVQSGAEVKKPGESLKISCKGSGYSFTSYWIGWVRQMPGKGLEWMGIIYPGSSDTRYSPSFQGQVTISADKSISTAYLQWSSLKASDTAMYYCARVYSFGGRHKALFDYWGQGTLVTVSS VL: EIVLTQSPATLSLSPGERATLSCRASQSVSSYLAWYQQKPGQAPRLLIYDASNRATGIPARFSGSGSGTDFTLTISSLEPEDFAVYYCQQRSNWPLTFGQGTKVEIK				> 10000
GC5B503 (antibody, V domains shown, GC5B164 PTM variant; also called GC5H246) VH: EVQLVQSGAEVKKPGESLKISCKGSGYSFTSYWIGWVRQMPGKGLEWMGIIYPGKSDTRYSPSFQGQVTISADKSISTAYLQWSSLKASDTAMYYCARVYSFGGRHKALFDYWGQGTLVTVSS VL: EIVLTQSPATLSLSPGERATLSCRASQSVSSYLAWYQQKPGQAPRLLIYDASNRATGIPARFSGSGSGTDFTLTISSLEPEDFAVYYCQQRSNWPLTFGQGTKVEIK				> 10000
GC5B504 (antibody, V domains shown, GC5B164 PTM variant; also called GC5H245) VH: EVQLVQSGAEVKKPGESLKISCKGSGYSFTSYWIGWVRQMPGKGLEWMGIIYPGESDTRYSPSFQGQVTISADKSISTAYLQWSSLKASDTAMYYCARVYSFGGRHKALFDYWGQGTLVTVSS VL: EIVLTQSPATLSLSPGERATLSCRASQSVSSYLAWYQQKPGQAPRLLIYDASNRATGIPARFSGSGSGTDFTLTISSLEPEDFAVYYCQQRSNWPLTFGQGTKVEIK				> 10000
GC5B505 (antibody, V domains shown, GC5B164 PTM variant; also called GC5H244) VH: EVQLVQSGAEVKKPGESLKISCKGSGYSFTSYWIGWVRQMPGKGLEWMGIIYPGYSDTRYSPSFQGQVTISADKSISTAYLQWSSLKASDTAMYYCARVYSFGGRHKALFDYWGQGTLVTVSS VL: EIVLTQSPATLSLSPGERATLSCRASQSVSSYLAWYQQKPGQAPRLLIYDASNRATGIPARFSGSGSGTDFTLTISSLEPEDFAVYYCQQRSNWPLTFGQGTKVEIK				> 10000
GC5B252 (antibody, V domains shown, GC5H42+PH9L3) VH: QVQLVQSGAEVKKPGSSVKVSCKASGGTFSSYGISWVRQAPGQGLEWMGGIIPIFGNINYAQKFQGRVTITADESTSTAYMELSSLRSEDTAVYYCARVSRRFKRFAYYFDYWGQGTLVTVSS VL: EIVLTQSPATLSLSPGERATLSCRASQSVSSYLAWYQQKPGQAPRLLIYDASNRATGIPARFSGSGSGTDFTLTISSLEPEDFAVYYCQQRSNWPLTFGQGTKVEIK	63300	1500	22000	
GC5B331 (antibody, V domains shown, GC5H35+PH9L2) VH: EVQLVQSGAEVKKPGESLKISCKGSGYSFTSYWIGWVRQMPGKGLEWMGIIYPGDSDTRYSPSFQGQVTISADKSISTAYLQWSSLKASDTAMYYCARIGFYGRSFRIFDYWGQGTLVTVSS VL: not shown	552			
GC5B333 (printed with GC5H35) (antibody, V domains shown, GC5H35+PH9L4) VH: EVQLVQSGAEVKKPGESLKISCKGSGYSFTSYWIGWVRQMPGKGLEWMGIIYPGDSDTRYSPSFQGQVTISADKSISTAYLQWSSLKASDTAMYYCARIGFYGRSFRIFDYWGQGTLVTVSS VL: not shown	1590			
GC5B253 (antibody, V domains shown, GC5H42+PH9L4) VH: QVQLVQSGAEVKKPGSSVKVSCKASGGTFSSYGISWVRQAPGQGLEWMGGIIPIFGNINYAQKFQGRVTITADESTSTAYMELSSLRSEDTAVYYCARVSRRFKRFAYYFDYWGQGTLVTVSS VL: not shown	574			
